In patent publication US20150017154A1 (NEXVET AUSTRALIA, published 2015):

What was measured:
[1] = target: NGF (species not stated, TF-1 cell proliferation assay); experiment: cell-based or functional assay
[2] = target: T1, mouse NGF (mouse, UniProt P01139 122-241, limits assumed); experiment: binding ELISA to mouse NGF, CHO supernatant dilutions
T1 construct: Coated on ELISA plates; also called murine NGF

[3] = target: T2, complement C1q (from human serum) (human, UniProt P02745 23-245; P02746 28-253; P02747 29-245); experiment: C1q ELISA: antibody captured on NGF-coated plate, human serum, anti-C1q-HRP
T2 construct: Native C1q in human serum diluted 1/100
T2 sequence (P02745 23-245 limits assumed, chain 1 of 3): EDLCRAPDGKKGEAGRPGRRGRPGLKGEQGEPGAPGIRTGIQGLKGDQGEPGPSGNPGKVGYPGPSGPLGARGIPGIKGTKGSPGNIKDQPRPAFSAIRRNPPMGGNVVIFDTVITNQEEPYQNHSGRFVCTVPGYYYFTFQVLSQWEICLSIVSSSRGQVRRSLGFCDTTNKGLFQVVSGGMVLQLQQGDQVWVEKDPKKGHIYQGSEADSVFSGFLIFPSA
T2 sequence (P02746 28-253 limits assumed, chain 2 of 3): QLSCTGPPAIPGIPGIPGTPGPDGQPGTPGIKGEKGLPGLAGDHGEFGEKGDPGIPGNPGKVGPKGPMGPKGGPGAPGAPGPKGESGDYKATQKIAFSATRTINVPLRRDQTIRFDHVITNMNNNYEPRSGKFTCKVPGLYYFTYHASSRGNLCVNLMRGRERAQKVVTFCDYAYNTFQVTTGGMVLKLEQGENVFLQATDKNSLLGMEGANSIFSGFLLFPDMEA
T2 sequence (P02747 29-245 limits assumed, chain 3 of 3): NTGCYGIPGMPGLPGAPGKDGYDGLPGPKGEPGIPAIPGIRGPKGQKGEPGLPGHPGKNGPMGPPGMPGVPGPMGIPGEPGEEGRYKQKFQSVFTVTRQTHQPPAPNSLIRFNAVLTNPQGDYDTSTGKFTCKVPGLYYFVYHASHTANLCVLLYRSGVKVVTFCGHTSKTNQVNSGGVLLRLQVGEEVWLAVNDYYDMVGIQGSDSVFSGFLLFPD

[4] = target: T2, complement C1q (from human serum); experiment: C1q ELISA: antibody captured on mouse NGF-coated plate, human serum, anti-C1q-HRP
Procedure: CHO cell transfectant supernatants from Example 2 were incubated with plates coated with […] NGF to capture the antibodies. The plates were washed and then incubated with human serum and bound complement C1q was measured by binding of anti-human C1q polyclonal antibody HRP and developed as above.
Plates were coated with 100 μl/well of 5 μg/ml mouse NGF and blocked with 5% BSA/PBS. Coated wells were incubated for 1 hour at room temperature with cell culture supernatants, containing recombinant caninised anti-NGF IgG, diluted in PBS/1% BSA (100 μl/well). The plates were washed and incubated for 1 hour at room temperature with 100 μl/well of human serum diluted 1/100 in veronal buffered saline containing 0.5 mM MgCl₂, 2 mM CaCl₂, 0.05% Tween-20, 0.1% gelatin and 0.5% BSA. After washing, plates were incubated with 100 μl of a 1/800 dilution of sheep anti-C1q-HRP (Serotec) in PBS/1% BSA. After washing, plates were developed by the addition of 100 μl TMB substrate (Thermo Scientific). Development was stopped by the addition of 100 μl of 2N H₂SO₄ and absorbance read at 450 nm.

[5] = target: T1, mouse NGF; experiment: binding ELISA to mouse NGF, CHO supernatants undiluted and 1/100
Procedure: A comparison of the binding of N-glycosylated and aglycosylated variants of anti-canine-NGF monoclonal antibodies to NGF with HCB and HCC heavy chain isotypes was carried out. Expression vectors encoding the light and heavy chain pairs described by SEQ ID NO:5 and SEQ ID NO:7 (HCB), SEQ ID NO:5 and SEQ ID NO:16 (HCB*), SEQ ID NO:5 and SEQ ID NO:8 (HCC), or SEQ ID NO:5 and SEQ ID NO:17 (HCC*) were co-transfected into CHO cells and the supernatants compared by binding ELISA to mouse NGF.

T1 sequence (P01139 122-241 limits assumed): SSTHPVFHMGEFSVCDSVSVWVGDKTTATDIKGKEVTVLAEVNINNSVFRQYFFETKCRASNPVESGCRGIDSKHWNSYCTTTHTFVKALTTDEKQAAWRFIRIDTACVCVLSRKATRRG

B1: variant caninised anti-NGF antibody (caN2) with light chain SEQ ID NO:10 (VL2 and canine kappa constant domain) and heavy chain SEQ ID NO:11 (HCA variant-VH2 … (antibody)
heavy: EVQLVESGGDLVNPGGTLTLSCVVSGFSLTNNNVNWVRQALGRGLEWVGGVWAGGATDYNSALKSRLTITRDTSKSTVFLQMHSLRSEDTATYYCARDGGYSSSTLYAMDAWGQGTLVTVSSASTTAPSVFPLAPSCGSTSGSTVALACLVSGYFPEPVTVSWNSGSLTSGVHTFPSVLQSSGLHSLSSMVTVPSSRWPSETFTCNVVHPASNTKVDKPVFNECRCTDTPPCPVPEPLGGPSVLIFPPKPKDILRITRTPEVTCVVLDLGREDPEVQISWFVDGKEVHTAKTQSREQQFNGTYRVVSVLPIEHQDWLTGKEFKCRVNHIDLPSPIERTISKARGRAHKPSVYVLPPSPKELSSSDTVSITCLIKDFYPPDIDVEWQSNGQQEPERKHRMTPPQLDEDGSYFLYSKLSVDKSRWQQGDPFTCAVMHETLQNHYTDLSLSHSPGK
light: DIVMTQSPASLSLSQEEKVTITCRASEDIYNALAWYQQKPGQAPKLLIYNTDTLHTGVPSRFSGSGSGTEFSLTISSLEPEDVAVYYCQHYFHYPRTFGAGTKVELKRNDAQPAVYLFQPSPDQLHTGSASVVCLLNSFYPKDINVKWKVDGVIQDTGIQESVTEQDKDSTYSLSSTLTMSSTEYLSHELYSCEITHKSLPSTLIKSFQRSECQRVD
notes: also called anti-canine NGF monoclonal antibody (canine HCA type heavy chain)
[1]
  IC50 in the TF-1 NGF neutralisation assay: 0.013 nM
[2]
  binding result: binds
[3]
  binding result: no binding (tested: 4, 2 and 1 ug/ml)

B2: caninised anti-NGF antibody comprising the caN-HCD heavy chain and caN-kLC light chain (antibody)
heavy: EVQLVESGGDLVNPGGTLTLSCVVSGFSLTNNNVNWVRQALGRGLEWVGGVWAGGATDYNSALKSRLTITRDTSKSTVFLKMHSLQSEDTATYYCARDGGYSSSTLYAMDAWGQGTLVTVSSASTTAPSVFPLAPSCGSTSGSTVALACLVSGYFPEPVTVSWNSGSLTSGVHTFPSVLQSSGLYSLSSTVTVPSSRWPSETFTCNVVHPASNTKVDKPVPKESTCKCISPCPVPESLGGPSVFIFPPKPKDILRITRTPEITCVVLDLGREDPEVQISWFVDGKEVHTAKTQPREQQFNSTYRVVSVLPIEHQDWLTGKEFKCRVNHIGLPSPIERTISKARGQAHQPSVYVLPPSPKELSSSDTVTLTCLIKDFYPPEIDVEWQSNGQPEPESKYHTTAPQLDEDGSYFLYSKLSVDKSRWQQGDTFTCAVMHEALQNHYTDLSLSHSPGK
light: DIQMTQSPASLSLSQEEKVTITCRASEDIYNALAWYQQKPGQAPKLLIYNTDTLHTGVPSRFSGSGSGTEYSLTINSLESEDVAVYFCQHYFHYPRTFGAGTKVELKRNDAQPAVYLFQPSPDQLHTGSASVVCLLNSFYPKDINVKWKVDGVIQDTGIQESVTEQDKDSTYSLSSTLTMSSTEYLSHELYSCEITHKSLPSTLIKSFQRSECQRVD
notes: also called D-HCD; caninised HCD type antibody
[4]
  binding result: no binding

B3: caninised anti-NGF antibody comprising the caN-HCC heavy chain and a caN-kLC light chain (antibody)
heavy: EVQLVESGGDLVNPGGTLTLSCVVSGFSLTNNNVNWVRQALGRGLEWVGGVWAGGATDYNSALKSRLTITRDTSKSTVFLKMHSLQSEDTATYYCARDGGYSSSTLYAMDAWGQGTLVTVSSASTTAPSVFPLAPSCGSQSGSTVALACLVSGYIPEPVTVSWNSVSLTSGVHTFPSVLQSSGLYSLSSMVTVPSSRWPSETFTCNVAHPATNTKVDKPVAKECECKCNCNNCPCPGCGLLGGPSVFIFPPKPKDILVTARTPTVTCVVVDLDPENPEVQISWFVDSKQVQTANTQPREEQSNGTYRVVSVLPIGHQDWLSGKQFKCKVNNKALPSPIEEIISKTPGQAHQPNVYVLPPSRDEMSKNTVTLTCLVKDFFPPEIDVEWQSNGQQEPESKYRMTPPQLDEDGSYFLYSKLSVDKSRWQRGDTFICAVMHEALHNHYTQISLSHSPGK
light: DIQMTQSPASLSLSQEEKVTITCRASEDIYNALAWYQQKPGQAPKLLIYNTDTLHTGVPSRFSGSGSGTEYSLTINSLESEDVAVYFCQHYFHYPRTFGAGTKVELKRNDAQPAVYLFQPSPDQLHTGSASVVCLLNSFYPKDINVKWKVDGVIQDTGIQESVTEQDKDSTYSLSSTLTMSSTEYLSHELYSCEITHKSLPSTLIKSFQRSECQRVD
notes: Tested as CHO cell transfectant supernatant; also called C-HCC; caN-HCC+caN-kLC1
[5]
  binding result: binds
[4]
  binding result: binds

B4: caninised anti-NGF antibody comprising the caN-HCB heavy chain and the caN-kLC light chain (antibody)
heavy: EVQLVESGGDLVNPGGTLTLSCVVSGFSLTNNNVNWVRQALGRGLEWVGGVWAGGATDYNSALKSRLTITRDTSKSTVFLKMHSLQSEDTATYYCARDGGYSSSTLYAMDAWGQGTLVTVSSASTTAPSVFPLAPSCGSTSGSTVALACLVSGYFPEPVTVSWNSGSLTSGVHTFPSVLQSSGLYSLSSMVTVPSSRWPSETFTCNVAHPASKTKVDKPVPKRENGRVPRPPDCPKCPAPEMLGGPSVFIFPPKPKDTLLIARTPEVTCVVVDLDPEDPEVQISWFVDGKQMQTAKTQPREEQFNGTYRVVSVLPIGHQDWLKGKQFTCKVNNKALPSPIERTISKARGQAHQPSVYVLPPSREELSKNTVSLTCLIKDFYPPDIDVEWQSNGQQEPESKYRTTPPQLDEDGSYFLYSKLSVDKSRWQRGDTFICAVMHEALHNHYTQESLSHSPGK
light: DIQMTQSPASLSLSQEEKVTITCRASEDIYNALAWYQQKPGQAPKLLIYNTDTLHTGVPSRFSGSGSGTEYSLTINSLESEDVAVYFCQHYFHYPRTFGAGTKVELKRNDAQPAVYLFQPSPDQLHTGSASVVCLLNSFYPKDINVKWKVDGVIQDTGIQESVTEQDKDSTYSLSSTLTMSSTEYLSHELYSCEITHKSLPSTLIKSFQRSECQRVD
notes: Tested as CHO cell transfectant supernatant; also called caN-HCB+caN-kLC1
[2]
  binding result: binds
[4]
  binding result: binds

B5: aglycosylated variant anti-canine-NGF monoclonal antibody HCB* (SEQ ID NO:5 and SEQ ID NO:16) (antibody)
heavy: EVQLVESGGDLVNPGGTLTLSCVVSGFSLTNNNVNWVRQALGRGLEWVGGVWAGGATDYNSALKSRLTITRDTSKSTVFLKMHSLQSEDTATYYCARDGGYSSSTLYAMDAWGQGTLVTVSSASTTAPSVFPLAPSCGSTSGSTVALACLVSGYFPEPVTVSWNSGSLTSGVHTFPSVLQSSGLYSLSSMVTVPSSRWPSETFTCNVAHPASKTKVDKPVPKRENGRVPRPPDCPKCPAPEMLGGPSVFIFPPKPKDTLLIARTPEVTCVVVDLDPEDPEVQISWFVDGKQMQTAKTQPREEQFAGTYRVVSVLPIGHQDWLKGKQFTCKVNNKALPSPIERTISKARGQAHQPSVYVLPPSREELSKNTVSLTCLIKDFYPPDIDVEWQSNGQQEPESKYRTTPPQLDEDGSYFLYSKLSVDKSRWQRGDTFICAVMHEALHNHYTQESLSHSPGK
light: DIQMTQSPASLSLSQEEKVTITCRASEDIYNALAWYQQKPGQAPKLLIYNTDTLHTGVPSRFSGSGSGTEYSLTINSLESEDVAVYFCQHYFHYPRTFGAGTKVELKRNDAQPAVYLFQPSPDQLHTGSASVVCLLNSFYPKDINVKWKVDGVIQDTGIQESVTEQDKDSTYSLSSTLTMSSTEYLSHELYSCEITHKSLPSTLIKSFQRSECQRVD
notes: Tested as CHO cell transfectant supernatant
[5]
  binding result: binds
[3]
  binding result: no binding

B6: aglycosylated variant anti-canine-NGF monoclonal antibody HCC* (SEQ ID NO:5 and SEQ ID NO:17) (antibody)
heavy: EVQLVESGGDLVNPGGTLTLSCVVSGFSLTNNNVNWVRQALGRGLEWVGGVWAGGATDYNSALKSRLTITRDTSKSTVFLKMHSLQSEDTATYYCARDGGYSSSTLYAMDAWGQGTLVTVSSASTTAPSVFPLAPSCGSQSGSTVALACLVSGYIPEPVTVSWNSVSLTSGVHTFPSVLQSSGLYSLSSMVTVPSSRWPSETFTCNVAHPATNTKVDKPVAKECECKCNCNNCPCPGCGLLGGPSVFIFPPKPKDILVTARTPTVTCVVVDLDPENPEVQISWFVDSKQVQTANTQPREEQSAGTYRVVSVLPIGHQDWLSGKQFKCKVNNKALPSPIEEIISKTPGQAHQPNVYVLPPSRDEMSKNTVTLTCLVKDFFPPEIDVEWQSNGQQEPESKYRMTPPQLDEDGSYFLYSKLSVDKSRWQRGDTFICAVMHEALHNHYTQISLSHSPGK
light: DIQMTQSPASLSLSQEEKVTITCRASEDIYNALAWYQQKPGQAPKLLIYNTDTLHTGVPSRFSGSGSGTEYSLTINSLESEDVAVYFCQHYFHYPRTFGAGTKVELKRNDAQPAVYLFQPSPDQLHTGSASVVCLLNSFYPKDINVKWKVDGVIQDTGIQESVTEQDKDSTYSLSSTLTMSSTEYLSHELYSCEITHKSLPSTLIKSFQRSECQRVD
notes: as for B5
[5]
  binding result: binds
[3]
  binding result: binds
